# Test system: F1*sub RNA substrate (template-directed ligation)
# Assay: fraction ligated after 30 min (ligated reads / total reads); higher = more ligase activity; sequences stand for … in GAGACCGCAACTGAAAAGTTGT…AGTTCTGCACGTAGAAGCAAAAGGC
# Conditions: 42 °C
# Outline: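 Templates from an oligo pool were PCR-amplified, transcribed with T7 and gel-purified to give the ribozyme variants. Ligated and unligated products were separated on gel, reverse transcribed using barcoded primers, and read on a MiSeq. A quality filter of ≥20 was applied to core bases. Fraction ligated was taken as ligated reads as a share of all reads per variant.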
row,Sequence,fraction ligated
1,TATCATTGTCGTAAGACATTGGATGGGTTGA [3d1262],0.801
2,TATCATTGTCGTAAGACATTTGATGGGTTGA [3d1263],0.787
3,TATCATTGTCGTAAGACATTTGGAGGGTTGA [3d1265],0.23
4,TATCATTGTCGTAAGACATTTGGATGGGTTA [3d1267],0.659
5,TATCATTGTCGTAAGACATTTGGATGGGTTG [3d1268],0.766
6,TATCATTGTCGTAAGACATTTGGATGGTTGA [3d1266],0.567
7,TATCATTGTCGTAAGACATTTGGTGGGTTGA [3d1264],0.421
8,TATCATTGTCGTAAGACCTTGGATGGGTTGA [3d1255],0.804
9,TATCATTGTCGTAAGACCTTTGATGGGTTGA [3d1256],0.778
10,TATCATTGTCGTAAGACCTTTGGAGGGTTGA [3d1258],0.104
11,TATCATTGTCGTAAGACCTTTGGATGGGTTA [3d1260],0.697
12,TATCATTGTCGTAAGACCTTTGGATGGGTTG [3d1261],0.778
13,TATCATTGTCGTAAGACCTTTGGATGGTTGA [3d1259],0.493
14,TATCATTGTCGTAAGACCTTTGGTGGGTTGA [3d1257],0.426
15,TATCATTGTCGTAAGACTTTGGATGGGTTGA [3d1237],0.802
16,TATCATTGTCGTAAGCACTTGGATGGGTTGA [3d1240],0.771
17,TATCATTGTCGTAAGCACTTTGATGGGTTGA [3d1241],0.58
18,TATCATTGTCGTAAGCACTTTGGAGGGTTGA [3d1243],0.0203
19,TATCATTGTCGTAAGCACTTTGGATGGGTTA [3d1245],0.474
20,TATCATTGTCGTAAGCACTTTGGATGGGTTG [3d1246],0.767
21,TATCATTGTCGTAAGCACTTTGGATGGTTGA [3d1244],0.0553

row,Sequence,fraction ligated
1,TATCATTGTCGTAAGCACTTTGGTGGGTTGA [3d1242],0.0707
2,TATCATTGTCGTAAGCATTTGGATGGGTTGA [3d1239],0.796
3,TATCATTGTCGTAAGCCTTTGGATGGGTTGA [3d1238],0.798
4,TATCATTGTCGTAGAACTTTGGATGGGTTGA [3d1217],0.864
5,TATCATTGTCGTAGACACTTGGATGGGTTGA [3d1220],0.752
6,TATCATTGTCGTAGACACTTTGATGGGTTGA [3d1221],0.774
7,TATCATTGTCGTAGACACTTTGGAGGGTTGA [3d1223],0.0919
8,TATCATTGTCGTAGACACTTTGGATGGGTTA [3d1225],0.595
9,TATCATTGTCGTAGACACTTTGGATGGGTTG [3d1226],0.799
10,TATCATTGTCGTAGACACTTTGGATGGGTTGA [2d115],0.798
11,TATCATTGTCGTAGACACTTTGGATGGTTGA [3d1224],0.305
12,TATCATTGTCGTAGACACTTTGGTGGGTTGA [3d1222],0.356
13,TATCATTGTCGTAGACATTTGGATGGGTTGA [3d1219],0.809
14,TATCATTGTCGTAGACCTTTGGATGGGTTGA [3d1218],0.788
15,TATCATTGTCGTAGCACTTTGGATGGGTTGA [3d1216],0.814
16,TATCATTGTCGTGACACTTTGGATGGGTTGA [3d1214],0.792
17,TATCATTGTCTAAACACTTTGGATGGGTTGA [3d1189],0.785
18,TATCATTGTCTAAGAACTTTGGATGGGTTGA [3d1191],0.803
19,TATCATTGTCTAAGACACTTGGATGGGTTGA [3d1194],0.78
20,TATCATTGTCTAAGACACTTTGATGGGTTGA [3d1195],0.751
21,TATCATTGTCTAAGACACTTTGGAGGGTTGA [3d1197],0.0716

row,Sequence,fraction ligated
1,TATCATTGTCTAAGACACTTTGGATGGGTTA [3d1199],0.477
2,TATCATTGTCTAAGACACTTTGGATGGGTTG [3d1200],0.769
3,TATCATTGTCTAAGACACTTTGGATGGGTTGA [2d113],0.785
4,TATCATTGTCTAAGACACTTTGGATGGTTGA [3d1198],0.169
5,TATCATTGTCTAAGACACTTTGGTGGGTTGA [3d1196],0.222
6,TATCATTGTCTAAGACATTTGGATGGGTTGA [3d1193],0.778
7,TATCATTGTCTAAGACCTTTGGATGGGTTGA [3d1192],0.758
8,TATCATTGTCTAAGCACTTTGGATGGGTTGA [3d1190],0.765
9,TATCATTGTCTAGACACTTTGGATGGGTTGA [3d1188],0.765
10,TATCATTGTGAAGACACTTTGGATGGGTTGA [3d1173],0.824
11,TATCATTGTGTAAACACTTTGGATGGGTTGA [3d1175],0.82
12,TATCATTGTGTAAGAACTTTGGATGGGTTGA [3d1177],0.856
13,TATCATTGTGTAAGACACTTGGATGGGTTGA [3d1180],0.799
14,TATCATTGTGTAAGACACTTTGATGGGTTGA [3d1181],0.308
15,TATCATTGTGTAAGACACTTTGGAGGGTTGA [3d1183],0.0175
16,TATCATTGTGTAAGACACTTTGGATGGGTTA [3d1185],0.677
17,TATCATTGTGTAAGACACTTTGGATGGGTTG [3d1186],0.786
18,TATCATTGTGTAAGACACTTTGGATGGGTTGA [2d112],0.824
19,TATCATTGTGTAAGACACTTTGGATGGTTGA [3d1184],0.0387
20,TATCATTGTGTAAGACACTTTGGTGGGTTGA [3d1182],0.0386
21,TATCATTGTGTAAGACATTTGGATGGGTTGA [3d1179],0.839

row,Sequence,fraction ligated
1,TATCATTGTGTAAGACCTTTGGATGGGTTGA [3d1178],0.875
2,TATCATTGTGTAAGCACTTTGGATGGGTTGA [3d1176],0.86
3,TATCATTGTGTAGACACTTTGGATGGGTTGA [3d1174],0.856
4,TATCATTGTTAAGACACTTTGGATGGGTTGA [3d1172],0.798
5,TATCATTTCGAAGACACTTTGGATGGGTTGA [3d1142],0.812
6,TATCATTTCGTAAACACTTTGGATGGGTTGA [3d1144],0.806
7,TATCATTTCGTAAGAACTTTGGATGGGTTGA [3d1146],0.857
8,TATCATTTCGTAAGACACTTGGATGGGTTGA [3d1149],0.763
9,TATCATTTCGTAAGACACTTTGATGGGTTGA [3d1150],0.799
10,TATCATTTCGTAAGACACTTTGGAGGGTTGA [3d1152],0.042
11,TATCATTTCGTAAGACACTTTGGATGGGTTA [3d1154],0.313
12,TATCATTTCGTAAGACACTTTGGATGGGTTG [3d1155],0.769
13,TATCATTTCGTAAGACACTTTGGATGGGTTGA [2d110],0.807
14,TATCATTTCGTAAGACACTTTGGATGGTTGA [3d1153],0.101
15,TATCATTTCGTAAGACACTTTGGTGGGTTGA [3d1151],0.1
16,TATCATTTCGTAAGACATTTGGATGGGTTGA [3d1148],0.801
17,TATCATTTCGTAAGACCTTTGGATGGGTTGA [3d1147],0.775
18,TATCATTTCGTAAGCACTTTGGATGGGTTGA [3d1145],0.786
19,TATCATTTCGTAGACACTTTGGATGGGTTGA [3d1143],0.802

# Reference: the supplement of paper PMC6755084
